Numbered stars: 1 amine (or outer) side, 2 acyl side, 3 side chain; on linkers, the order of the positions; unused ones are H or OH. Bridge positions count the residues as written; N and C are the ends. Side chains are listed from the residue outwards. Ends that are not written are not given here. * marks the point of attachment. C20 diacid = O=C(O)CCCCCCCCCCCCCCCCCCC(=O)*; γGlu = O=C(O)[C@H](CCC(=O)[*:2])N[*:1]

To fix the notation:
B1: N^ε1-[(4S)-4-carboxy-4-[[(4S)-4-carboxy-4-(19-carboxynonadecanoylamino)butanoyl]amino]butanoyl]-[His14,Arg17,Pro21,Pro27]-h-amylin (peptide)
peptide: K([γGlu-γGlu-C20 diacid])CNTATCATQRLAHFLRHSSPNFGAIPSSTNVGSNTY-NH2
modifications: disulfide 2-7; N-terminus assumed
SMILES: CC[C@H](C)[C@H](NC(=O)[C@H](C)NC(=O)CNC(=O)[C@H](Cc1ccccc1)NC(=O)[C@H](CC(N)=O)NC(=O)[C@@H]1CCCN1C(=O)[C@H](CO)NC(=O)[C@H](CO)NC(=O)[C@H](Cc1c[nH]cn1)NC(=O)[C@H](CCCNC(=N)N)NC(=O)[C@H](CC(C)C)NC(=O)[C@H](Cc1ccccc1)NC(=O)[C@H](Cc1c[nH]cn1)NC(=O)[C@H](C)NC(=O)[C@H](CC(C)C)NC(=O)[C@H](CCCNC(=N)N)NC(=O)[C@H](CCC(N)=O)NC(=O)[C@@H](NC(=O)[C@H](C)NC(=O)[C@@H]1CSSC[C@H](NC(=O)[C@@H](N)CCCCNC(=O)CC[C@H](NC(=O)CC[C@H](NC(=O)CCCCCCCCCCCCCCCCCCC(=O)O)C(=O)O)C(=O)O)C(=O)N[C@@H](CC(N)=O)C(=O)N[C@@H]([C@@H](C)O)C(=O)N[C@@H](C)C(=O)N[C@@H]([C@@H](C)O)C(=O)N1)[C@@H](C)O)C(=O)N1CCC[C@H]1C(=O)N[C@@H](CO)C(=O)N[C@@H](CO)C(=O)N[C@H](C(=O)N[C@@H](CC(N)=O)C(=O)N[C@H](C(=O)NCC(=O)N[C@@H](CO)C(=O)N[C@@H](CC(N)=O)C(=O)N[C@H](C(=O)N[C@@H](Cc1ccc(O)cc1)C(N)=O)[C@@H](C)O)C(C)C)[C@@H](C)O
notes: also called compound 92
B2: N^ε1-[(4S)-4-carboxy-4-[[(4S)-4-carboxy-4-(19-carboxynonadecanoylamino)butanoyl]amino]butanoyl]-[Ser14,Arg17,Pro21,Pro27,Pro34,Glu35]-h-amylin (peptide)
peptide: K([γGlu-γGlu-C20 diacid])CNTATCATQRLASFLRHSSPNFGAIPSSTNVGPETY-NH2
modifications: disulfide 2-7; N-terminus assumed
SMILES: CC[C@H](C)[C@H](NC(=O)[C@H](C)NC(=O)CNC(=O)[C@H](Cc1ccccc1)NC(=O)[C@H](CC(N)=O)NC(=O)[C@@H]1CCCN1C(=O)[C@H](CO)NC(=O)[C@H](CO)NC(=O)[C@H](Cc1c[nH]cn1)NC(=O)[C@H](CCCNC(=N)N)NC(=O)[C@H](CC(C)C)NC(=O)[C@H](Cc1ccccc1)NC(=O)[C@H](CO)NC(=O)[C@H](C)NC(=O)[C@H](CC(C)C)NC(=O)[C@H](CCCNC(=N)N)NC(=O)[C@H](CCC(N)=O)NC(=O)[C@@H](NC(=O)[C@H](C)NC(=O)[C@@H]1CSSC[C@H](NC(=O)[C@@H](N)CCCCNC(=O)CC[C@H](NC(=O)CC[C@H](NC(=O)CCCCCCCCCCCCCCCCCCC(=O)O)C(=O)O)C(=O)O)C(=O)N[C@@H](CC(N)=O)C(=O)N[C@@H]([C@@H](C)O)C(=O)N[C@@H](C)C(=O)N[C@@H]([C@@H](C)O)C(=O)N1)[C@@H](C)O)C(=O)N1CCC[C@H]1C(=O)N[C@@H](CO)C(=O)N[C@@H](CO)C(=O)N[C@H](C(=O)N[C@@H](CC(N)=O)C(=O)N[C@H](C(=O)NCC(=O)N1CCC[C@H]1C(=O)N[C@@H](CCC(=O)O)C(=O)N[C@H](C(=O)N[C@@H](Cc1ccc(O)cc1)C(N)=O)[C@@H](C)O)C(C)C)[C@@H](C)O
notes: also called compound 120
B3: N^-1-[(4S)-4-carboxy-4-(19-carboxynonadecanoylamino)butanoyl]-Gly[Arg1,His14,Arg17,Pro21,Pro27,His34]-h-amylin (peptide)
peptide: {C20 diacid-γGlu}-GRCNTATCATQRLAHFLRHSSPNFGAIPSSTNVGHNTY-NH2
modifications: disulfide 3-8
SMILES: CC[C@H](C)[C@H](NC(=O)[C@H](C)NC(=O)CNC(=O)[C@H](Cc1ccccc1)NC(=O)[C@H](CC(N)=O)NC(=O)[C@@H]1CCCN1C(=O)[C@H](CO)NC(=O)[C@H](CO)NC(=O)[C@H](Cc1c[nH]cn1)NC(=O)[C@H](CCCNC(=N)N)NC(=O)[C@H](CC(C)C)NC(=O)[C@H](Cc1ccccc1)NC(=O)[C@H](Cc1c[nH]cn1)NC(=O)[C@H](C)NC(=O)[C@H](CC(C)C)NC(=O)[C@H](CCCNC(=N)N)NC(=O)[C@H](CCC(N)=O)NC(=O)[C@@H](NC(=O)[C@H](C)NC(=O)[C@@H]1CSSC[C@H](NC(=O)[C@H](CCCNC(=N)N)NC(=O)CNC(=O)CC[C@H](NC(=O)CCCCCCCCCCCCCCCCCCC(=O)O)C(=O)O)C(=O)N[C@@H](CC(N)=O)C(=O)N[C@@H]([C@@H](C)O)C(=O)N[C@@H](C)C(=O)N[C@@H]([C@@H](C)O)C(=O)N1)[C@@H](C)O)C(=O)N1CCC[C@H]1C(=O)N[C@@H](CO)C(=O)N[C@@H](CO)C(=O)N[C@H](C(=O)N[C@@H](CC(N)=O)C(=O)N[C@H](C(=O)NCC(=O)N[C@@H](Cc1c[nH]cn1)C(=O)N[C@@H](CC(N)=O)C(=O)N[C@H](C(=O)N[C@@H](Cc1ccc(O)cc1)C(N)=O)[C@@H](C)O)C(C)C)[C@@H](C)O
notes: also called compound 100
B4: N^-1-[(4S)-4-carboxy-4-(19-carboxynonadecanoylamino)butanoyl]-Gly[Arg1,Ala14,Arg17,Pro21,Pro27,His34]-h-amylin (peptide)
peptide: {C20 diacid-γGlu}-GRCNTATCATQRLAAFLRHSSPNFGAIPSSTNVGHNTY-NH2
modifications: disulfide 3-8
SMILES: CC[C@H](C)[C@H](NC(=O)[C@H](C)NC(=O)CNC(=O)[C@H](Cc1ccccc1)NC(=O)[C@H](CC(N)=O)NC(=O)[C@@H]1CCCN1C(=O)[C@H](CO)NC(=O)[C@H](CO)NC(=O)[C@H](Cc1c[nH]cn1)NC(=O)[C@H](CCCNC(=N)N)NC(=O)[C@H](CC(C)C)NC(=O)[C@H](Cc1ccccc1)NC(=O)[C@H](C)NC(=O)[C@H](C)NC(=O)[C@H](CC(C)C)NC(=O)[C@H](CCCNC(=N)N)NC(=O)[C@H](CCC(N)=O)NC(=O)[C@@H](NC(=O)[C@H](C)NC(=O)[C@@H]1CSSC[C@H](NC(=O)[C@H](CCCNC(=N)N)NC(=O)CNC(=O)CC[C@H](NC(=O)CCCCCCCCCCCCCCCCCCC(=O)O)C(=O)O)C(=O)N[C@@H](CC(N)=O)C(=O)N[C@@H]([C@@H](C)O)C(=O)N[C@@H](C)C(=O)N[C@@H]([C@@H](C)O)C(=O)N1)[C@@H](C)O)C(=O)N1CCC[C@H]1C(=O)N[C@@H](CO)C(=O)N[C@@H](CO)C(=O)N[C@H](C(=O)N[C@@H](CC(N)=O)C(=O)N[C@H](C(=O)NCC(=O)N[C@@H](Cc1c[nH]cn1)C(=O)N[C@@H](CC(N)=O)C(=O)N[C@H](C(=O)N[C@@H](Cc1ccc(O)cc1)C(N)=O)[C@@H](C)O)C(C)C)[C@@H](C)O

One assay addresses T1, rat calcitonin receptor (rat, UniProt P32214 25-516).
T1 construct: whole, on cells; Membranes of transiently transfected BHK tk'ts 13 cells (Assay VIII); also called rCTR
T1 sequence (looked up): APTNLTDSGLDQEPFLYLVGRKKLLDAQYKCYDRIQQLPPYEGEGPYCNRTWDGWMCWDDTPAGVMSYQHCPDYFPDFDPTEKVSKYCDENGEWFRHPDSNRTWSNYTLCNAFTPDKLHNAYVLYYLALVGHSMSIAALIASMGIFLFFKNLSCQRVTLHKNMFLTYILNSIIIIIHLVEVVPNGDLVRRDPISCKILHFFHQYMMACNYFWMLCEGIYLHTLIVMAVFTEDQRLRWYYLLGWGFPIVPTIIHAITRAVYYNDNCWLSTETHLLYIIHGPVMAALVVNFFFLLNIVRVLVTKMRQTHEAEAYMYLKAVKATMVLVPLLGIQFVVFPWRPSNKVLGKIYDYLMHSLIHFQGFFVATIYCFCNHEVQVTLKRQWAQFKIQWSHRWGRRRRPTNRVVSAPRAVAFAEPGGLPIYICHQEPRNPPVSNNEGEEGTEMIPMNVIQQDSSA
The assay is described as follows: ratio IC50 rat calcitonin receptor / IC50 rat amylin receptor (reference).
As for B1, the “Ratio rCT/rAmylin binding” value was determined as 156.

In the case of B2, the “Ratio rCT/rAmylin binding” value worked out at 868.

With B3, the “Ratio rCT/rAmylin binding” value stood at 27.7.

As to B4, the “Ratio rCT/rAmylin binding” value is 60.9.

On to {C20 diacid-γGlu}-GRCNTATCATQRLAAFLRHSSPNFGAIPSSTNVGPNTY-NH2 (disulfide 3-8), for which the “Ratio rCT/rAmylin binding” value came to 129.

For a further assay, the target named is T2, human calcitonin receptor (human, UniProt P30988 25-474).
T2 construct: whole, on cells; Membranes of a stably transfected BHK cell line (Assay VII); also called hCTR; hCT
T2 sequence (looked up): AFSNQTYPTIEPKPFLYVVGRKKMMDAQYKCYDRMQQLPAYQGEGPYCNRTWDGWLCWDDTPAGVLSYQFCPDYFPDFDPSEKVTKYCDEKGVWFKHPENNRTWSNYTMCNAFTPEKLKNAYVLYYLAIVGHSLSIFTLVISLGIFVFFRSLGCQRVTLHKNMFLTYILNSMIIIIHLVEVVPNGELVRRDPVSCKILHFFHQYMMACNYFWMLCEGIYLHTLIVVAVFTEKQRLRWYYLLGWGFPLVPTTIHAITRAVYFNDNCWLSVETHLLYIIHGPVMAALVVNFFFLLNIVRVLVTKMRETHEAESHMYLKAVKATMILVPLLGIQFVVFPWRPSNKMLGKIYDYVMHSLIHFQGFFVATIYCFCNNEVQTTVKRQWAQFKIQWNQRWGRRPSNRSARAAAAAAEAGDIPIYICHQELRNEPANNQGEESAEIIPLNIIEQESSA
Briefly: ratio IC50 human calcitonin receptor / IC50 human amylin receptor (reference). The gist of the method: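 Membranes (35 ng/μL final) + SPA beads, 50 mM Hepes pH 7.4 buffer with 1 mM CaCl2, 5 mM MgCl₂, 0.1% OA, 0.02% Tween20; 120 min, 25° C, shaking; centrifuged, counted; IC₅₀ by one-site binding competition.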
Regarding B1, the “Ratio hCT/hAmylin binding” value was determined as 145.

For B2, the “Ratio hCT/hAmylin binding” value stood at 45.3.

Consider B3, for which the “Ratio hCT/hAmylin binding” value stood at 65.3.

Turning to B4, the “Ratio hCT/hAmylin binding” value stood at 68.6.

Consider {C20 diacid-γGlu}-GRCNTATCATQRLAAFLRHSSPNFGAIPSSTNVGPNTY-NH2 (disulfide 3-8), for which the “Ratio hCT/hAmylin binding” value was found to be 26.5.

In the next assay the target is T1, rat calcitonin receptor. Briefly: SPA competition with 125I-calcitonin, membranes of BHK cells with rat calcitonin receptor (Assay VIII).
As a reminder, the IC50 is the concentration needed to halve the response being measured. Consider B1, for which the IC50 worked out at 104 nM.

Turning to B2, the IC50 is 140 nM.

B3: the IC50 is 311 nM.

As to B4, the IC50 stood at 492 nM.

Take {C20 diacid-γGlu}-GRCNTATCATQRLAAFLRHSSPNFGAIPSSTNVGPNTY-NH2 (disulfide 3-8): the IC50 worked out at 56.3 nM.

Another assay concerns the target T3, rat amylin receptor (rat calcitonin receptor + rat RAMP 3) (rat, UniProt P32214 25-516; Q9JJ73 23-147).
T3 construct: whole, on cells; Membranes of transiently transfected BHK tk'ts 13 cells (Assay VI); also called rAmylin-R; rat amylin 3(a) receptor
T3 sequence (looked up) 1: T1 sequence (looked up)
T3 sequence (looked up) 2: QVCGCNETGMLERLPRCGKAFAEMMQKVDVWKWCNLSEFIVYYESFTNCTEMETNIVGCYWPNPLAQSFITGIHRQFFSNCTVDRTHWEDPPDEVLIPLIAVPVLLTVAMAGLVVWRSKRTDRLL
The assay is described as follows: SPA competition with 125I-rat amylin, membranes of BHK cells with rat calcitonin receptor + rat RAMP3 (Assay VI).
Turning to B1, the IC50 stood at 0.668 nM.

For B2, the IC50 came out at 0.161 nM.

For B3, the IC50 amounted to 11.2 nM.

As for B4, the IC50 is 8.07 nM.

On to {C20 diacid-γGlu}-GRCNTATCATQRLAAFLRHSSPNFGAIPSSTNVGPNTY-NH2 (disulfide 3-8), for which the half-inhibitory concentration (IC50) came to 0.436 nM.

(Values after US20140087995A1 (published 2014).)
